Test results: US7888089B2, “eNOS mutations useful for gene therapy and therapeutic screening” (Yale University, priority 1999, dated 2011)
Values belong to the molecule of their own block, whether it stands above or below them.

Legend:
Akt [1] = assay: In vitro kinase reaction with Akt immunoprecipitated from COS cells; type: biochemical; details: immunoprecipitated kinase
COS-7 cells = assay: NO release (NO2−, chemiluminescence) from transfected COS cells; type: cell-based; details: for NO2− accumulation on co-transfection with eNOS: Akt construct co-transfected with eNOS, FIG. 1A; for Akt dependent NO release / activation of NOS construct: NOS construct co-transfected with Akt
Source text: Cell Transfections: The bovine eNOS, human iNOS, rat nNOS cDNAs in pcDNA3 and HA-tagged wild-type Akt, Akt (K179M) or myr-Akt in pCMV6 were generated by standard cloning methods. The myr-nNOS in pcDNA3 was generated by PCR, incorporating a new amino terminus containing the eNOS N-myristoylation consensus site (MGNLKSVG, SEQ ID NO:1) fused in frame to the second amino acid of the nNOS coding sequence. […] Mutation of the putative Akt phosphorylation sites in eNOS were generated using the Quick Change site-directed mutagenesis kit (Stratagene) according to the manufacturers instructions. All mutants were verified by DNA sequencing. COS-7 cells were plated (100 mm dish) and transfected with the NOS (7.5-30 mg) and Akt (1 mg) plasmids using calcium phosphate. To balance all transfections, the expression vector for β-galactosidase cDNA was used. Twenty-four to forty-eight hours after transfection, the expression of appropriate proteins (40-80 mg) were confirmed by Western blot analysis using eNOS mAb (9D10, Zymed), HA mAb (12CA5, Boehringer Mannheim), iNOS pAb (Zymed Laboratories) or nNOS mAb (Zymed Laboratories).
NO release from transfected COS cells: 24-48 hrs after transfection, media was processed for the measurement of nitrite (NO2^−), the stable breakdown product of NO in aqueous solution, by NO specific chemiluminescence as described (Sessa et al., 1995). Media was deproteinized and samples containing NO2^− were refluxed in glacial acetic acid containing sodium iodide. […] In all experiments, NO2^− release was inhibitable by a NOS inhibitor. In addition, NO2^−-release from cells transfected with the β-galactosidase cDNA was subtracted to control for background levels of NO2^− found in serum or media. In some experiments, cGMP accumulation in COS was used as a bioassay for the production of NO as described.

eNOS = assay: NOS activity (3H-L-arginine to 3H-L-citrulline) in COS cell lysates; type: biochemical, bovine; details: COS cells transfected with eNOS only, n=3
Source text: NOS activity assays: The conversion of ^3H-L-arginine to ^3H-L-citrulline was used to determine NOS activity in COS cell or endothelial cell lysates as previously described by Garcia-Cardena et al. (1998).

Akt [2] = biological target: T1, Akt (Homo sapiens, UniProt P31749); assay: In vitro phosphorylation of purified eNOS by recombinant Akt; type: biochemical; details: FIG. 2D
T1 construct: host or cells: baculovirus-infected SF9 cells (Akt); peptides synthesized at the W. M. Keck Biotechnology Resource Center
Experimental: In experiments examining the in vitro phosphorylation of wild-type and mutant eNOS, recombinant Akt (1 mg) purified from baculovirus infected SF9 cells, was incubated with wild-type or S1179A eNOS (2.4 mg, purified from E. coli) using essentially the same conditions as above. Proteins were resolved by SDS-PAGE and ^32P incorporation and the amount of protein determined by Coomassie staining as above.

Akt [3] = assay: 32P phosphorylation of eNOS in intact transfected COS cells; type: cell-based; details: eNOS/Akt transfected COS cells; wortmannin 500 nM
Experimental: Phosphorylation studies in vivo and in vitro: For in vivo phosphorylation studies, COS cells were transfected with the cDNAs for wild-type or S635, 1179A eNOS and HA-Akt overnight. 36 hrs after transfection, cells were placed into dialyzed serum replete, phosphate-free Dulbecco's minimum essential medium supplemented with 80 μCi/ml of ^32P orthophosphoric acid for 3 hr. Some cells were pretreated with wortmannin (500 nM) in the phosphate-free media for 1 hr and during the labeling.

T1 sequence (P31749 whole entry): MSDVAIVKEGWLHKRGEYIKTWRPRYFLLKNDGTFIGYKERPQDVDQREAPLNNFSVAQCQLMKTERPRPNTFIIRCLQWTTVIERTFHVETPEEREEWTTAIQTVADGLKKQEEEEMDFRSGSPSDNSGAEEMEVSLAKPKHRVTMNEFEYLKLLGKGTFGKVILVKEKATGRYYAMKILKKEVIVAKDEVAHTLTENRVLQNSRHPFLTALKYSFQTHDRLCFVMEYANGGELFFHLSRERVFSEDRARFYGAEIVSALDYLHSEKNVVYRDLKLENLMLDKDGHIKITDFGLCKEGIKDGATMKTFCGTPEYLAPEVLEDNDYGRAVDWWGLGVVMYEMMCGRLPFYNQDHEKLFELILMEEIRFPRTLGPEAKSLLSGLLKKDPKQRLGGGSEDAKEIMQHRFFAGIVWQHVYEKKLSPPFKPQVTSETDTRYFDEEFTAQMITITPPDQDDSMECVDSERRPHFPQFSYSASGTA

Molecule: kinase inactive Akt: kinase inactive Akt (K179M) [reference compound]
histone or eNOS phosphorylation by Akt variant (Akt [1]): did not significantly increase histone or eNOS phosphorylation | NO2− accumulation on co-transfection with eNOS (COS-7 cells): not

Molecule: nNOS: rat neuronal NOS [reference compound]
Akt dependent NO release / activation of NOS construct (COS-7 cells): did not result in a further increase in NO release

Molecule: myr-nNOS: nNOS with new amino terminus containing the eNOS N-myristoylation consensus site (MGNLKSVG)
Akt dependent NO release / activation of NOS construct (COS-7 cells): results in Akt stimulation of nNOS

Molecule: wild-type Akt: HA-tagged wild-type Akt (protein kinase B) [reference compound]
NO2− accumulation on co-transfection with eNOS (COS-7 cells): markedly enhanced

Molecule: iNOS: human inducible NOS [reference compound]
Akt dependent NO release / activation of NOS construct (COS-7 cells): did not result in a further increase in NO release

B1: G2A eNOS: myristoylation, palmitoylation defective mutant of eNOS (protein)
chain: ANLKSVGQEPGPPCGLGLGLGLGLCGKQGPASPAPEPSRAPAPATPHAPDHSPAPNSPTLTRPPEGPKFPRVKNWELGSITYDTLCAQSQQDGPCTPRCCLGSLVLPRKLQTRPSPGPPPAEQLLSQARDFINQYYSSIKRSGSQAHEERLQEVEAEVASTGTYHLRESELVFGAKQAWRNAPRCVGRIQWGKLQVFDARDCSSAQEMFTYICNHIKYATNRGNLRSAITVFPQRAPGRGDFRIWNSQLVRYAGYRQQDGSVRGDPANVEITELCIQHGWTPGNGRFDVLPLLLQAPDEAPELFVLPPELVLEVPLEHPTLEWFAALGLRWYALPAVSNMLLEIGGLEFSAAPFSGWYMSTEIGTRNLCDPHRYNILEDVAVCMDLDTRTTSSLWKDKAAVEINLAVLHSFQLAKVTIVDHHAATVSFMKHLDNEQKARGGCPADWAWIVPPISGSLTPVFHQEMVNYILSPAFRYQPDPWKGSATKGAGITRKKTFKEVANAVKISASLMGTLMAKRVKATILYASETGRAQSYAQQLGRLFRKAFDPRVLCMDEYDVVSLEHEALVLVVTSTFGNGDPPENGESFAAALMEMSGPYNSSPRPEQHKSYKIRFNSVSCSDPLVSSWRRKRKESSNTDSAGALGTLRFCVFGLGSRAYPHFCAFARAVDTRLEELGGERLLQLGQGDELCGQEEAFRGWAKAAFQASCETFCVGEEAKAAAQDIFSPKRSWKRQRYRLSTQAEGLQLLPGLIHVHRRKMFQATVLSVENLQSSKSTRATILVRLDTAGQEGLQYQPGDHIGICPPNRPGLVEALLSRVEDPPPPTESVAVEQLEKGSPGGPPPSWVRDPRLPPCTLRQALTFFLDITSPPSPRLLRLLSTLAEEPSEQQELETLSQDPRRYEEWKWFRCPTLLEVLEQFPSVALPAPLLLTQLPLLQPRYYSVSSAPNAHPGEVHLTVAVLAYRTQDGLGPLHYGVCSTWLSQLKTGDPVPCFIRGAPSFRLPPDPYVPCILVGPGTGIAPFRGFWQERLHDIESKGLQPAPMTLVFGCRCSQLDHLYRDEVQDAQERGVFGRVLTAFSREPDSPKTYVQDILRTELAAEVHRVLCLERGHMFVCGDVTMATSVLQTVQRILATEGDMELDEAGDVIGVLRDQQRYHEDIFGLTLRTQEVTSRIRTQSFSLQERHLRGAVPWAFDPPGPDTPGP
Akt dependent NO release / activation of NOS construct (COS-7 cells): did not activate

Akt-dependent phosphorylation compared to the wild-type protein (Akt [2]): markedly reduces
B2: S1179A: bovine eNOS with serine 1179 mutated to alanine (protein)
chain: GNLKSVGQEPGPPCGLGLGLGLGLCGKQGPASPAPEPSRAPAPATPHAPDHSPAPNSPTLTRPPEGPKFPRVKNWELGSITYDTLCAQSQQDGPCTPRCCLGSLVLPRKLQTRPSPGPPPAEQLLSQARDFINQYYSSIKRSGSQAHEERLQEVEAEVASTGTYHLRESELVFGAKQAWRNAPRCVGRIQWGKLQVFDARDCSSAQEMFTYICNHIKYATNRGNLRSAITVFPQRAPGRGDFRIWNSQLVRYAGYRQQDGSVRGDPANVEITELCIQHGWTPGNGRFDVLPLLLQAPDEAPELFVLPPELVLEVPLEHPTLEWFAALGLRWYALPAVSNMLLEIGGLEFSAAPFSGWYMSTEIGTRNLCDPHRYNILEDVAVCMDLDTRTTSSLWKDKAAVEINLAVLHSFQLAKVTIVDHHAATVSFMKHLDNEQKARGGCPADWAWIVPPISGSLTPVFHQEMVNYILSPAFRYQPDPWKGSATKGAGITRKKTFKEVANAVKISASLMGTLMAKRVKATILYASETGRAQSYAQQLGRLFRKAFDPRVLCMDEYDVVSLEHEALVLVVTSTFGNGDPPENGESFAAALMEMSGPYNSSPRPEQHKSYKIRFNSVSCSDPLVSSWRRKRKESSNTDSAGALGTLRFCVFGLGSRAYPHFCAFARAVDTRLEELGGERLLQLGQGDELCGQEEAFRGWAKAAFQASCETFCVGEEAKAAAQDIFSPKRSWKRQRYRLSTQAEGLQLLPGLIHVHRRKMFQATVLSVENLQSSKSTRATILVRLDTAGQEGLQYQPGDHIGICPPNRPGLVEALLSRVEDPPPPTESVAVEQLEKGSPGGPPPSWVRDPRLPPCTLRQALTFFLDITSPPSPRLLRLLSTLAEEPSEQQELETLSQDPRRYEEWKWFRCPTLLEVLEQFPSVALPAPLLLTQLPLLQPRYYSVSSAPNAHPGEVHLTVAVLAYRTQDGLGPLHYGVCSTWLSQLKTGDPVPCFIRGAPSFRLPPDPYVPCILVGPGTGIAPFRGFWQERLHDIESKGLQPAPMTLVFGCRCSQLDHLYRDEVQDAQERGVFGRVLTAFSREPDSPKTYVQDILRTELAAEVHRVLCLERGHMFVCGDVTMATSVLQTVQRILATEGDMELDEAGDVIGVLRDQQRYHEDIFGLTLRTQEVTSRIRTQAFSLQERHLRGAVPWAFDPPGPDTPGP
NOS activity in lysates (eNOS): 71.9±2.9 pmol L-citrulline generated/mg protein | Akt dependent NO release / activation of NOS construct (COS-7 cells): abolishes Akt dependent activation of eNOS

B3: S635, 1179A: double serine mutant of eNOS, serines 635 and 1179 mutated to alanine (protein)
chain: GNLKSVGQEPGPPCGLGLGLGLGLCGKQGPASPAPEPSRAPAPATPHAPDHSPAPNSPTLTRPPEGPKFPRVKNWELGSITYDTLCAQSQQDGPCTPRCCLGSLVLPRKLQTRPSPGPPPAEQLLSQARDFINQYYSSIKRSGSQAHEERLQEVEAEVASTGTYHLRESELVFGAKQAWRNAPRCVGRIQWGKLQVFDARDCSSAQEMFTYICNHIKYATNRGNLRSAITVFPQRAPGRGDFRIWNSQLVRYAGYRQQDGSVRGDPANVEITELCIQHGWTPGNGRFDVLPLLLQAPDEAPELFVLPPELVLEVPLEHPTLEWFAALGLRWYALPAVSNMLLEIGGLEFSAAPFSGWYMSTEIGTRNLCDPHRYNILEDVAVCMDLDTRTTSSLWKDKAAVEINLAVLHSFQLAKVTIVDHHAATVSFMKHLDNEQKARGGCPADWAWIVPPISGSLTPVFHQEMVNYILSPAFRYQPDPWKGSATKGAGITRKKTFKEVANAVKISASLMGTLMAKRVKATILYASETGRAQSYAQQLGRLFRKAFDPRVLCMDEYDVVSLEHEALVLVVTSTFGNGDPPENGESFAAALMEMSGPYNSSPRPEQHKSYKIRFNSVSCSDPLVSSWRRKRKEASNTDSAGALGTLRFCVFGLGSRAYPHFCAFARAVDTRLEELGGERLLQLGQGDELCGQEEAFRGWAKAAFQASCETFCVGEEAKAAAQDIFSPKRSWKRQRYRLSTQAEGLQLLPGLIHVHRRKMFQATVLSVENLQSSKSTRATILVRLDTAGQEGLQYQPGDHIGICPPNRPGLVEALLSRVEDPPPPTESVAVEQLEKGSPGGPPPSWVRDPRLPPCTLRQALTFFLDITSPPSPRLLRLLSTLAEEPSEQQELETLSQDPRRYEEWKWFRCPTLLEVLEQFPSVALPAPLLLTQLPLLQPRYYSVSSAPNAHPGEVHLTVAVLAYRTQDGLGPLHYGVCSTWLSQLKTGDPVPCFIRGAPSFRLPPDPYVPCILVGPGTGIAPFRGFWQERLHDIESKGLQPAPMTLVFGCRCSQLDHLYRDEVQDAQERGVFGRVLTAFSREPDSPKTYVQDILRTELAAEVHRVLCLERGHMFVCGDVTMATSVLQTVQRILATEGDMELDEAGDVIGVLRDQQRYHEDIFGLTLRTQEVTSRIRTQAFSLQERHLRGAVPWAFDPPGPDTPGP
NOS activity in lysates (eNOS): 80.8±23.2 pmol L-citrulline generated/mg protein | Akt dependent NO release / activation of NOS construct (COS-7 cells): abolishes Akt dependent NO release | Akt dependent phosphorylation of eNOS in intact cells (Akt [3]): abolished Akt dependent phosphorylation of eNOS
